# Measurements from patent US20210130436A1 (published 2021).
# Positions count from the first letter of the chain named. In names and notes the source's numbering stands.
# T1: CD226 (Homo sapiens (Human), UniProt Q15762 19-336)
# T1 construct: also called CD226 tfxn
# T1 sequence: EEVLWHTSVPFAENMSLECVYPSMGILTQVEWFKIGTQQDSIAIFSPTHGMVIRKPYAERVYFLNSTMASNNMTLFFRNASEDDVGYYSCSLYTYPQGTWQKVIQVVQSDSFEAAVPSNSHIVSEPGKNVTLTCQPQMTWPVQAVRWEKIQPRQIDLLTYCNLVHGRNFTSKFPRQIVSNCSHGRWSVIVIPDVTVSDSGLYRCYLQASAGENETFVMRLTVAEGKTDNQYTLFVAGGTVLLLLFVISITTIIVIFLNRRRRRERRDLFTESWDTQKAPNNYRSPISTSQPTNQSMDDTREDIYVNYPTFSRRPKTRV
# T2: TIGIT (Homo sapiens (Human), UniProt Q495A1 23-244)
# T2 construct: also called TIGIT tfxn
# T2 sequence: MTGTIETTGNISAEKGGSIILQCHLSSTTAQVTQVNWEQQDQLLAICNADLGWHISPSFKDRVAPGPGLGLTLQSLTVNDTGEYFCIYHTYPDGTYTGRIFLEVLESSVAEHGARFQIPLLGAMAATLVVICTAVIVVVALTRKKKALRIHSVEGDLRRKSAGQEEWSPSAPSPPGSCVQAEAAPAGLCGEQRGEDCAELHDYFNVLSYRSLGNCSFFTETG
# T3: CD96 (UniProt P40200 22-585, limits assumed)
# T3 construct: whole, on cells
# T3 sequence (looked up): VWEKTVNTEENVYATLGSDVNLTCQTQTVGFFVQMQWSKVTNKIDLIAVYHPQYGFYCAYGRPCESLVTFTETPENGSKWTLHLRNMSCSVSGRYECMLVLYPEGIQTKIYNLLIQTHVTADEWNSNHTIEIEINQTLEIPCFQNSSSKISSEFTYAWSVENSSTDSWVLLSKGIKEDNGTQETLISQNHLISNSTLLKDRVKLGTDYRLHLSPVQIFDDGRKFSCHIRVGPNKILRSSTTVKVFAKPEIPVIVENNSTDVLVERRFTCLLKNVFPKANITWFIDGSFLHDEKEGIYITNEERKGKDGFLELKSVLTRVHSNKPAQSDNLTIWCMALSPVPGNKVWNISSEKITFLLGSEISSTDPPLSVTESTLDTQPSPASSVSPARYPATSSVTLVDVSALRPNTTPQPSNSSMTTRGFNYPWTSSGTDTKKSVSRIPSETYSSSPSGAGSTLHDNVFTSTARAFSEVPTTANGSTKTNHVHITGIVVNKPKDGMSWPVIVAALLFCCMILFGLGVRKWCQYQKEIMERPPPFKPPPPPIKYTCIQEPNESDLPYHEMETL
# B1: variant CD155 IgV-Fc A81V/L83P (Fc fusion, not shown: a dimerising Fc or GST)
# chain: WPPPGTGDVVVQAPTQVPGFLGDSVTLPCYLQVPNMEVTHVSQLTWARHGESGSMAVFHQTQGPSYSESKRLEFVAARLGVEPRNASLRMFGLRVEDEGNYTCLFVTFPQGSRSVDIWLRVL
# B2: variant CD155 IgV-Fc P18T/F91S/R94H (Fc fusion, not shown: a dimerising Fc or GST)
# chain: B1 chain with P18T, V81A, P83L, F91S, R94H
# B3: variant CD155 IgV-Fc P18L/L79V/F91S (Fc fusion, not shown: a dimerising Fc or GST)
# chain: B1 chain with P18L, L79V, V81A, P83L, F91S
# B4: CD80 variant E35D/M47V/N48K/V68M/K89N IgV (SEQ ID NO: 2250)-Fc (inert) (Fc fusion)
# chain: VIHVTKEVKEVATLSCGHNVSVEELAQTRIYWQKDKKMVLTMMSGDVKIWPEYKNRTIFDITNNLSIMILALRPSDEGTYECVVLKYENDAFKREHLAEVTLSVKADGSGGGGSEPKSSDKTHTCPPCPAPEAEGAPSVFLFPPKPKDTLMISRTPEVTCVVVDVSHEDPEVKFNWYVDGVEVHNAKTKPREEQYNSTYRVVSVLTVLHQDWLNGKEYKCKVSNKALPAPIEKTISKAKGQPREPQVYTLPPSREEMTKNQVSLTCLVKGFYPSDIAVEWESNGQPENNYKTTPPVLDSDGSFFLYSKLTVDKSRWQQGNVFSCSVMHEALHNHYTQKSLSLSPG
# notes: also called E35D/M47V/N48K/V68M/K89N CD80 IgV-Fc; CD80 vIgD-Fc
# B5: CD80 variant E35D/D46V/M47L/V68M/L85Q/E88D IgV (SEQ ID NO: 2280)-Fc (inert) (Fc fusion)
# chain: B4 chain with D46V, V47L, K48N, L85Q, E88D, N89K
# notes: also called E35D/D46V/M47L/V68M/L85Q/E88D CD80 IgV-Fc; CD80 vIgD-Fc
# B6: CD80 WT IgV-Fc (Fc fusion, not shown: a dimerising Fc or GST)
# chain: VIHVTKEVKEVATLSCGHNVSVEELAQTRIYWQKEKKMVLTMMSGDMNIWPEYKNRTIFDITNNLSIVILALRPSDEGTYECVVLKYEKDAFKREHLAEVTLSVKAD
# notes: Wild-type control; also called WT CD80-IgV-Fc
# B7: variant CD80 IgV-Fc H18Y/A26E/E35D/M47L (Fc fusion, not shown: small tags and cut ends; a dimerising Fc or GST)
# chain: B6 chain with H18Y, A26E, E35D, M47L
# B8: variant CD80 IgV-Fc E35D/M47L/A71G/L85M/F92Y (Fc fusion, not shown: small tags and cut ends; a dimerising Fc or GST)
# chain: B6 chain with E35D, M47L, A71G, L85M, F92Y
# notes: Fc fusion of the variant IgV
# B9: variant CD80 IgV-Fc H18Y/V68M/A71G/D90G (Fc fusion, not shown: small tags and cut ends; a dimerising Fc or GST)
# chain: B6 chain with H18Y, V68M, A71G, D90G
# B10: variant CD80 IgV-Fc E35D/D46E/M47V/V68M/D90G/K93E (Fc fusion, not shown: small tags and cut ends; a dimerising Fc or GST)
# chain: B6 chain with E35D, D46E, M47V, V68M, D90G, K93E
# notes: Fc fusion of the variant IgV
# B11: PD-L1 A33D/S75P/D104G IgV-Fc (Fc fusion, not shown: a dimerising Fc or GST)
# chain: FTVTVPKDLYVVEYGSNMTIECKFPVEKQLDLDALIVYWEMEDKNIIQFVHGEEDLKVQHSSYRQRARLLKDQLPLGNAALQITDVKLQDAGVYRCMISYGGAGYKRITVKVNA
# Legend:
# [1] = target: T1, CD226; experiment: flow cytometry on CD226-transfected Expi293 cells; ratio to unmodified CD155 Fc fusion
# [2] = target: T2, TIGIT; experiment: flow cytometry on TIGIT-transfected Expi293 cells; ratio to unmodified CD155 Fc fusion
# [3] = target: T3, CD96; experiment: flow cytometry on CD96-expressing cells
# [4] = target: T1, CD226; experiment: flow cytometry on CD226-transfected Expi293 cells
# [5] = target: T2, TIGIT; experiment: flow cytometry on TIGIT-transfected Expi293 cells
# [6] = target: T3, CD96; experiment: flow cytometry on CD96-expressing cells; ratio to unmodified CD155 Fc fusion
# [7] = target: T4, human CD28, on Jurkat/IL2 reporter cells or primary human T cells (human, UniProt P10747 19-220); experiment: flow cytometry on unactivated primary human pan T cells (CD28+), anti-human IgG detection (FIG. 19A)
# T4 construct: Endogenous CD28 of Jurkat cells or of primary human T cells
# [8] = target: T5, human PD-L1, expressed on cells (human, UniProt Q9NZQ7 19-290); experiment: flow cytometry on CD14+ monocytes (monocyte-expressed PD-L1) of PBMC cultured overnight with anti-CD3 and anti-CD28 (FIG. 19B)
# T5 construct: On CHO/PD-L1, K562/OKT3/PD-L1 and CHO/OKT3/PD-L1 aAPC, huPD-L1-transduced MC38 cells, or primary human monocytes; also called huPD-L1; hPD-L1
# [9] = target: T6, human PD-L1 (human, UniProt Q9NZQ7 19-290); experiment: cell-based or functional assay
# T6 sequence (Q9NZQ7 19-290): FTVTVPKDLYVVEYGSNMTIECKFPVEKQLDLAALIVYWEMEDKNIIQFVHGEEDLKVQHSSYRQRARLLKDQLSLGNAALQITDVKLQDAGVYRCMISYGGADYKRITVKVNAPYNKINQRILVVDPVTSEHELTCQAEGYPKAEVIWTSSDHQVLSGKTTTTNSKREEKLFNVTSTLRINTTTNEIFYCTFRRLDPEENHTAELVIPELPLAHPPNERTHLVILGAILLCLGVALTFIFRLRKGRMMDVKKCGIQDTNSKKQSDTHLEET
# [10] = target: T6, human PD-L1; experiment: flow cytometry, CHO cells stably expressing PD-L1
# [11] = target: T7, human CTLA-4 (human, UniProt P16410 36-223); experiment: flow cytometry, CHO cells stably expressing CTLA4
# T7 construct: also called huCTLA4
# [12] = target: T6, human PD-L1; experiment: flow cytometry; PD-L1 MFI over CD28 MFI
# [13] = target: human CD28 (human, UniProt P10747 19-220); experiment: flow cytometry, Jurkat cells (CD28)
# [14] = target: T8, human CD28 (human, UniProt P10747 19-220); experiment: flow cytometry, Jurkat/IL2 reporter cells (endogenous CD28); MFI against WT CD80 IgV-Fc
# [15] = target: T9, human PD-L1 (human, UniProt Q9NZQ7 19-290); experiment: flow cytometry; PD-L1 MFI over CD28 MFI at 33.3 nM
# T9 construct: also called huPD-L1; CD274
# [16] = target: T9, human PD-L1; experiment: flow cytometry, CHO cells expressing huPD-L1
# Target sequence in this assay (Q9NZQ7 19-290): as above
# [17] = target: T8, human CD28; experiment: flow cytometry, Jurkat/IL2 reporter cells (endogenous CD28)
# [18] = target: T9, human PD-L1; experiment: flow cytometry, CHO cells expressing huPD-L1; MFI against WT CD80 IgV-Fc
# [19] = target: T10, human CTLA4 (human, UniProt P16410 36-223); experiment: flow cytometry, CHO cells expressing huCTLA4; MFI against WT CD80 IgV-Fc
# T10 construct: also called huCTLA4
# [20] = target: T10, human CTLA4; experiment: flow cytometry, CHO cells expressing huCTLA4
# [21] = target: T11, human CTLA-4 (CTLA4), expressed on CHO cells (human, UniProt P16410 36-223); experiment: flow cytometry on CHO cells stably expressing human CTLA-4; MFI relative to WT CD80 ECD-Fc (R&D)
# T11 construct: Full-length surface expression construct transduced by lentivirus into CHO cells; also called huCTLA4
# [22] = target: T12, human PD-L1, expressed on CHO cells (human, UniProt Q9NZQ7 19-290); experiment: flow cytometry on CHO cells stably expressing human PD-L1; PE anti-human Fc
# T12 construct: Full-length surface expression construct transduced by lentivirus into CHO cells; also called huPD-L1; CD274
# [23] = target: T12, human PD-L1, expressed on CHO cells; experiment: flow cytometry on CHO cells stably expressing human PD-L1; MFI relative to WT CD80 ECD-Fc (R&D)
# [24] = target: T11, human CTLA-4 (CTLA4), expressed on CHO …; experiment: flow cytometry on CHO cells stably expressing human CTLA-4; PE anti-human Fc
# [25] = target: T13, CD28, endogenously expressed on Jurkat/IL2 reporter cells (human, UniProt P10747 19-220); experiment: flow cytometry on Jurkat/IL2 reporter cells (endogenous CD28); MFI relative to WT CD80 ECD-Fc (R&D)
# T13 construct: Endogenous CD28 of Jurkat/IL2 reporter cells
# [26] = target: T13, CD28, endogenously expressed on …; experiment: flow cytometry on Jurkat/IL2 reporter cells (endogenous CD28); PE anti-human Fc
# [27] = target: T12, human PD-L1, expressed on CHO cells; experiment: flow cytometry; ratio of MFI on PD-L1 CHO cells to MFI on Jurkat (CD28) cells
# [28] = target: T14, PD-1 (Homo sapiens (Human), UniProt Q15116 21-288); experiment: flow cytometry on Jurkat/PD-1 cells, 50 nM
# T14 construct: The construct in the cells is not described; also called PDCD1
# T14 sequence (Q15116 21-288): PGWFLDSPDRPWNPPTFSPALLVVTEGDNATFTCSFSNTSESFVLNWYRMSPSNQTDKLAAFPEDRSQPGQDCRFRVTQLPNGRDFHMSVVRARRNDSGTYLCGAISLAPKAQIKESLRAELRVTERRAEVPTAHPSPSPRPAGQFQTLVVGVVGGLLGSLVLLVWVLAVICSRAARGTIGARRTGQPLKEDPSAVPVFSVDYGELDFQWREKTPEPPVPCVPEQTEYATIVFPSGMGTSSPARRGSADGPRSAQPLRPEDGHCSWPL
# T11 sequence (P16410 36-223): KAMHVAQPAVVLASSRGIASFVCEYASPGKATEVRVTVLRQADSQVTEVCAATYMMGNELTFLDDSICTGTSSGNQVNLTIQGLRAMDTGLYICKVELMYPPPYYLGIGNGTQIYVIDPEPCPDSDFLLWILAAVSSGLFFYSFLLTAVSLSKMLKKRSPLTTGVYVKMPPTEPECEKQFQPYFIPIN
# T10 sequence (P16410 36-223): as above
# T12 sequence (Q9NZQ7 19-290): as the sequence (Q9NZQ7 19-290) above
# T7 sequence (P16410 36-223): as the sequence (P16410 36-223) above
# T5 sequence (Q9NZQ7 19-290): as the sequence (Q9NZQ7 19-290) above
binder,measurement,setting,value
B1,MFI parental ratio,[1],1.1 fold
same,MFI parental ratio,[2],1.1 fold
same,MFI,[3],2620 MFI
same,MFI,[4],4170 MFI
same,MFI,[5],2910 MFI
same,MFI parental ratio,[6],0.8 fold
B2,MFI parental ratio,[1],1 fold
same,MFI parental ratio,[2],1.1 fold
same,MFI,[3],2510 MFI
same,MFI,[4],3590 MFI
same,MFI,[5],2940 MFI
same,MFI parental ratio,[6],0.8 fold
B3,MFI parental ratio,[1],1.4 fold
same,MFI parental ratio,[2],1.5 fold
same,MFI,[3],3280 MFI
same,MFI,[4],5140 MFI
same,MFI,[5],4070 MFI
same,MFI parental ratio,[6],1.1 fold
B4,binding result,[7],binds
same,binding result,[8],binds
B5,binding result,[7],binds
same,binding result,[8],binds
B6,"Fold Increase over WT CD80-IgV-Fc, Jurkat/IL2 + CHO/OKT3/PD-L1 Reporter Assay",[9],1 fold
same,Fold change to WT CD80,[10],0.9 fold
same,MFI at 33.3 nM,[10],44 MFI
same,Fold change to WT CD80,[11],15.1 fold
same,MFI at 33.3 nM,[11],26400 MFI
same,Ratio of PDL1:CD28,[12],0.5 ratio
same,Fold change to WT CD80,[13],3 fold
same,MFI at 33.3 nM,[13],95 MFI
B7,Fold change to WT CD80,[14],7.4 fold
same,Ratio of PDL1:CD28,[15],30.7 ratio
same,MFI at 33.3 nM,[16],9950 MFI
same,MFI at 33.3 nM,[17],324 MFI
same,Fold change to WT CD80,[18],228 fold
same,Fold change to WT CD80,[19],17.7 fold
same,MFI at 33.3 nM,[20],24000 MFI
B8,Fold change to WT CD80,[21],1.37 fold
same,MFI at 33.3 nM,[22],46700 MFI
same,Fold change to WT CD80,[23],3.93 fold
same,MFI at 33.3 nM,[24],216000 MFI
same,Fold change to WT CD80,[25],0.14 fold
same,MFI at 33.3 nM,[26],2460 MFI
same,Ratio of PDL1:CD28,[27],19 ratio
B9,Fold change to WT CD80,[14],77.8 fold
same,Ratio of PDL1:CD28,[15],9 ratio
same,MFI at 33.3 nM,[16],30700 MFI
same,MFI at 33.3 nM,[17],3410 MFI
same,Fold change to WT CD80,[18],703 fold
same,Fold change to WT CD80,[19],16.4 fold
same,MFI at 33.3 nM,[20],22300 MFI
B10,Fold change to WT CD80,[21],1.74 fold
same,MFI at 33.3 nM,[22],71900 MFI
same,Fold change to WT CD80,[23],6.06 fold
same,MFI at 33.3 nM,[24],273000 MFI
same,Fold change to WT CD80,[25],1.5 fold
same,MFI at 33.3 nM,[26],27100 MFI
same,Ratio of PDL1:CD28,[27],3 ratio
B11,Fold increase over wildtype PD-L1 IgV-Fc,[28],0 fold
same,MFI at 50 nM,[28],251
